The results in this text go back to the Human Domainome abundance scans (Beltran et al. 2025).

B1: Lysine-specific demethylase 2B, residues 656 to 722; numbered along this chain, Q8NHM5 (parent)
chain: LPHTAVCLVCGEAGKEDTVEEEEGKFNLMLMECSICNEIIHPGCLKIKESEGVVNDELPNCWECPKC

± gives the uncertainty stated by the source.

Variants of B1 are the subject of the data set. Put plainly: abundance fitness (aPCA) (normalised: wild type 0, dead -1); higher = more abundant; growth selection in yeast, the domain comes from the species named. To be noted: Homo sapiens.
Turning to LPHTAVCLVCGEAGNEDTVEEEEGKFNLMLMECSICNEIIHPGCLKIKESEGVVNDELPNCWECPKC [K15N], the abundance fitness is -0.751 ± 0.37.
The result for LPHTAVCLVCGEAGLEDTVEEEEGKFNLMLMECSICNEIIHPGCLKIKESEGVVNDELPNCWECPKC [K15L] reads -0.154 ± 0.067; that for LPHTAVCLVCGEAGHEDTVEEEEGKFNLMLMECSICNEIIHPGCLKIKESEGVVNDELPNCWECPKC [K15H], -0.65 ± 0.4.
For LPHTAVCLVCGEAGYEDTVEEEEGKFNLMLMECSICNEIIHPGCLKIKESEGVVNDELPNCWECPKC [K15Y], the abundance fitness was -0.583 ± 0.22.
The figure for LPHTAVCLVCGEAGAEDTVEEEEGKFNLMLMECSICNEIIHPGCLKIKESEGVVNDELPNCWECPKC [K15A] is -0.525 ± 0.11.
In the case of LPHTAVCLVCGEAGWEDTVEEEEGKFNLMLMECSICNEIIHPGCLKIKESEGVVNDELPNCWECPKC [K15W], the abundance fitness was determined as 0.017 ± 0.18.
As for LPHTAVCLVCGEAGEEDTVEEEEGKFNLMLMECSICNEIIHPGCLKIKESEGVVNDELPNCWECPKC [K15E], the abundance fitness is -0.175 ± 0.17.
In the case of LPHTAVCLVCGEAGTEDTVEEEEGKFNLMLMECSICNEIIHPGCLKIKESEGVVNDELPNCWECPKC [K15T], the abundance fitness was -0.202 ± 0.13.
Take LPHTAVCLVCGEAGFEDTVEEEEGKFNLMLMECSICNEIIHPGCLKIKESEGVVNDELPNCWECPKC [K15F]: the abundance fitness is -0.368 ± 0.14.
LPHTAVCLVCGEAGQEDTVEEEEGKFNLMLMECSICNEIIHPGCLKIKESEGVVNDELPNCWECPKC [K15Q]: the abundance fitness was -0.378 ± 0.17.
The figure for LPHTAVCLVCGEAGIEDTVEEEEGKFNLMLMECSICNEIIHPGCLKIKESEGVVNDELPNCWECPKC [K15I] is -0.305 ± 0.16.
In the case of LPHTAVCLVCGEAGMEDTVEEEEGKFNLMLMECSICNEIIHPGCLKIKESEGVVNDELPNCWECPKC [K15M], the abundance fitness was found to be 0.12 ± 0.092.
Regarding LPHTAVCLVCGEAGCEDTVEEEEGKFNLMLMECSICNEIIHPGCLKIKESEGVVNDELPNCWECPKC [K15C], the abundance fitness was -0.611 ± 0.14.
For the variant LPHTAVCLVCGEAGKEDTFEEEEGKFNLMLMECSICNEIIHPGCLKIKESEGVVNDELPNCWECPKC [V19F], the abundance fitness came to 0.151 ± 0.21.
The figure for LPHTAVCLVCGEAGKEDTGEEEEGKFNLMLMECSICNEIIHPGCLKIKESEGVVNDELPNCWECPKC [V19G] is -0.193 ± 0.078.
As for LPHTAVCLVCGEAGKEDTDEEEEGKFNLMLMECSICNEIIHPGCLKIKESEGVVNDELPNCWECPKC [V19D], the abundance fitness was -0.459 ± 0.23.
The result for LPHTAVCLVCGEAGKEDTAEEEEGKFNLMLMECSICNEIIHPGCLKIKESEGVVNDELPNCWECPKC [V19A] reads -0.049 ± 0.089.
Turning to LPHTAVCLVCGEAGKEDTEEEEEGKFNLMLMECSICNEIIHPGCLKIKESEGVVNDELPNCWECPKC [V19E], the abundance fitness was -0.469 ± 0.13.
With LPHTAVCLVCGEARKEDTVEEEEGKFNLMLMECSICNEIIHPGCLKIKESEGVVNDELPNCWECPKC [G14R], the abundance fitness amounted to 0.04 ± 0.069.
For LPHTAVCLVCGEAVKEDTVEEEEGKFNLMLMECSICNEIIHPGCLKIKESEGVVNDELPNCWECPKC [G14V], the abundance fitness is -0.139 ± 0.082.
The result for LPHTAVCLVCGEAWKEDTVEEEEGKFNLMLMECSICNEIIHPGCLKIKESEGVVNDELPNCWECPKC [G14W] reads -0.635 ± 0.095.
Turning to LPHTAVCLVCGEASKEDTVEEEEGKFNLMLMECSICNEIIHPGCLKIKESEGVVNDELPNCWECPKC [G14S], the abundance fitness is -0.043 ± 0.081.
Turning to LPHTAVCLVCGEATKEDTVEEEEGKFNLMLMECSICNEIIHPGCLKIKESEGVVNDELPNCWECPKC [G14T], the abundance fitness was -0.24 ± 0.097.
In the case of LPHTAVCLVCGEAGKFDTVEEEEGKFNLMLMECSICNEIIHPGCLKIKESEGVVNDELPNCWECPKC [E16F], the abundance fitness was -0.497 ± 0.22.
As for LPHTAVCLVCGEAGKGDTVEEEEGKFNLMLMECSICNEIIHPGCLKIKESEGVVNDELPNCWECPKC [E16G], the abundance fitness is -0.137 ± 0.086.
For LPHTAVCLVCGEAGKDDTVEEEEGKFNLMLMECSICNEIIHPGCLKIKESEGVVNDELPNCWECPKC [E16D], the abundance fitness was -0.609 ± 0.19.
For the variant LPHTAVCLVCGEAGKPDTVEEEEGKFNLMLMECSICNEIIHPGCLKIKESEGVVNDELPNCWECPKC [E16P], the abundance fitness is -0.043 ± 0.1.
With LPHTAVCLVCGEAGKVDTVEEEEGKFNLMLMECSICNEIIHPGCLKIKESEGVVNDELPNCWECPKC [E16V], the abundance fitness is -0.258 ± 0.094.
Consider LPHTAVCLVCGEAGKADTVEEEEGKFNLMLMECSICNEIIHPGCLKIKESEGVVNDELPNCWECPKC [E16A], for which the abundance fitness is -0.378 ± 0.15.
Regarding LPHTAVCLVCGEAGKNDTVEEEEGKFNLMLMECSICNEIIHPGCLKIKESEGVVNDELPNCWECPKC [E16N], the abundance fitness was -0.646 ± 0.29.
Regarding LPHTAVCLVCGEAGKMDTVEEEEGKFNLMLMECSICNEIIHPGCLKIKESEGVVNDELPNCWECPKC [E16M], the abundance fitness was -0.148 ± 0.13.
The figure for LPHTAVCLVCGEAGKWDTVEEEEGKFNLMLMECSICNEIIHPGCLKIKESEGVVNDELPNCWECPKC [E16W] is -0.638 ± 0.24; for LPHTAVCLVCGEAGKLDTVEEEEGKFNLMLMECSICNEIIHPGCLKIKESEGVVNDELPNCWECPKC [E16L] it is -0.283 ± 0.071; for LPHTAVCLVCGEAGKQDTVEEEEGKFNLMLMECSICNEIIHPGCLKIKESEGVVNDELPNCWECPKC [E16Q] it is 0.022 ± 0.12.
With LPHTAVCLVCGEAGKYDTVEEEEGKFNLMLMECSICNEIIHPGCLKIKESEGVVNDELPNCWECPKC [E16Y], the abundance fitness was -0.786 ± 0.23.
In the case of LPHTAVCLVCGEAGKTDTVEEEEGKFNLMLMECSICNEIIHPGCLKIKESEGVVNDELPNCWECPKC [E16T], the abundance fitness was 0.167 ± 0.16.
As to LPHTAVCLVCGEAGKCDTVEEEEGKFNLMLMECSICNEIIHPGCLKIKESEGVVNDELPNCWECPKC [E16C], the abundance fitness was -0.556 ± 0.21.
For the variant LPHTAVCLVCGEAGKSDTVEEEEGKFNLMLMECSICNEIIHPGCLKIKESEGVVNDELPNCWECPKC [E16S], the abundance fitness was -0.204 ± 0.13.
For LPHTAVCLVCGEAGKIDTVEEEEGKFNLMLMECSICNEIIHPGCLKIKESEGVVNDELPNCWECPKC [E16I], the abundance fitness was -0.467 ± 0.22.
Consider LPHTAVCLVCGEAGKRDTVEEEEGKFNLMLMECSICNEIIHPGCLKIKESEGVVNDELPNCWECPKC [E16R], for which the abundance fitness was -0.148 ± 0.083.
